These sequences were tested against T1, F55C5.11 (F55C5.11) (Caenorhabditis elegans) (UniProt Q1ZXU0).
T1 sequence: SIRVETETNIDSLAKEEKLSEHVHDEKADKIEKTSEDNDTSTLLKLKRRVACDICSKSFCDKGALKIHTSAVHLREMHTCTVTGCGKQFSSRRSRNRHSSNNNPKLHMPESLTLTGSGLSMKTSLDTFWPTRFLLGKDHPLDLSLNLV

Sequence | binding signal (PBM E-score (-0.5 to 0.5))
TGTGACAA (double strand) [8-mer TGTGACAA] | 0.485
ATGTGACA (double strand) [8-mer ATGTGACA] | 0.489
GGTGTCAC (double strand) [8-mer GGTGTCAC] | 0.486
GGGTGACA (double strand) [8-mer GGGTGACA] | 0.494
TGGTGACA (double strand) [8-mer TGGTGACA] | 0.487
GGTGACAA (double strand) [8-mer GGTGACAA] | 0.487
GGTGACAC (double strand) [8-mer GGTGACAC] | 0.496
AGTGTCAC (double strand) [8-mer AGTGTCAC] | 0.487
CTGTCACC (double strand) [8-mer CTGTCACC] | 0.487
CGGTGACA (double strand) [8-mer CGGTGACA] | 0.488
AGGTGACA (double strand) [8-mer AGGTGACA] | 0.486
GTGTGACA (double strand) [8-mer GTGTGACA] | 0.486
GTGACAAA (double strand) [8-mer GTGACAAA] | 0.484
GTGTCACA (double strand) [8-mer GTGTCACA] | 0.488

These sequences were tested against T2, K11D2.4 (K11D2.4) (Caenorhabditis elegans) (UniProt G5EBU1).
T2 sequence: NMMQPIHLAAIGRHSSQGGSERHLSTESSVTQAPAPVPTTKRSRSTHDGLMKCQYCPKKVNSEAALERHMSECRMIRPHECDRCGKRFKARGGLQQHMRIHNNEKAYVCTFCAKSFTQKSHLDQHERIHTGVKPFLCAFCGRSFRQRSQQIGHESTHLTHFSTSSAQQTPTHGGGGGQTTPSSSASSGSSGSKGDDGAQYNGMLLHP

Sequence | binding signal (PBM E-score (-0.5 to 0.5))
AATAAAAA (double strand) [8-mer AATAAAAA] | 0.496
ACAAAAAA (double strand) [8-mer ACAAAAAA] | 0.494
CGAAAAAA (double strand) [8-mer CGAAAAAA] | 0.495
AAAAAAGA (double strand) [8-mer AAAAAAGA] | 0.495
AAAAAACA (double strand) [8-mer AAAAAACA] | 0.495
AAAAAAGT (double strand) [8-mer AAAAAAGT] | 0.494

Each sequence was assayed against T3, M03D4.4 (M03D4.4) (Caenorhabditis elegans) (UniProt Q21494).
T3 sequence: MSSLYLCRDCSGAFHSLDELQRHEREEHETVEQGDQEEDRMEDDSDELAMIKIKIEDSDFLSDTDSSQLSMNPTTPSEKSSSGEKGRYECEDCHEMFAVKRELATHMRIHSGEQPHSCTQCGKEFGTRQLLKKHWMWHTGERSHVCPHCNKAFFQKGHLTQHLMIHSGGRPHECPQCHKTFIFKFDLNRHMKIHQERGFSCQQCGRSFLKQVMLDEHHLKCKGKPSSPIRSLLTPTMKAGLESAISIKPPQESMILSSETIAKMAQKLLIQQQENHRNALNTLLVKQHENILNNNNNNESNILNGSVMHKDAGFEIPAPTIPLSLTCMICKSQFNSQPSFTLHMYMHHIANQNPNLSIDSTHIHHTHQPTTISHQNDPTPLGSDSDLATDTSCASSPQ

Sequence | binding signal (PBM E-score (-0.5 to 0.5))
GTGCATGA (double strand) [8-mer GTGCATGA] | 0.494
ACGCATGA (double strand) [8-mer ACGCATGA] | 0.495
GATCATGC (double strand) [8-mer GATCATGC] | 0.493
ATGCATGC (double strand) [8-mer ATGCATGC] | 0.491
ATGCATGA (double strand) [8-mer ATGCATGA] | 0.499
TGCATGAA (double strand) [8-mer TGCATGAA] | 0.495
TCCATGCA (double strand) [8-mer TCCATGCA] | 0.491
TCATGCAA (double strand) [8-mer TCATGCAA] | 0.493
GTCATGCA (double strand) [8-mer GTCATGCA] | 0.495
CATGCATG (double strand) [8-mer CATGCATG] | 0.498
AATGCATG (double strand) [8-mer AATGCATG] | 0.494
GCATGGAA (double strand) [8-mer GCATGGAA] | 0.491
ACATGCAT (double strand) [8-mer ACATGCAT] | 0.491
CGCATGAA (double strand) [8-mer CGCATGAA] | 0.491
ATCATGCA (double strand) [8-mer ATCATGCA] | 0.497

The sequences below were run against T4, T22C8.4 (T22C8.4) (Caenorhabditis elegans) (UniProt Q22677).
T4 sequence: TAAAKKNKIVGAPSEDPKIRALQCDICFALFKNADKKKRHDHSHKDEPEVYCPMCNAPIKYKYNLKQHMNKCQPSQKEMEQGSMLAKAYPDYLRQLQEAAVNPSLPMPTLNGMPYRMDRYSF

Sequence | binding signal (PBM E-score (-0.5 to 0.5))
CACCCTGC (double strand) [8-mer CACCCTGC] | 0.49
GCAGGGGC (double strand) [8-mer GCAGGGGC] | 0.498
AGCAGGGG (double strand) [8-mer AGCAGGGG] | 0.499
CCCTGCTA (double strand) [8-mer CCCTGCTA] | 0.486
ACCCTGCT (double strand) [8-mer ACCCTGCT] | 0.487
ACCCCTGC (double strand) [8-mer ACCCCTGC] | 0.494
CCCCTGCG (double strand) [8-mer CCCCTGCG] | 0.493
CCCCTGCA (double strand) [8-mer CCCCTGCA] | 0.493
AGCAGGGA (double strand) [8-mer AGCAGGGA] | 0.466
CAGCAGGG (double strand) [8-mer CAGCAGGG] | 0.494
CCCTGCAG (double strand) [8-mer CCCTGCAG] | 0.483

These sequences were tested against atf-7 (C07G2.2) (Caenorhabditis elegans) (UniProt Q86MD3).
Sequence of atf-7 (C07G2.2) (Caenorhabditis elegans) (Q86MD3 339-508): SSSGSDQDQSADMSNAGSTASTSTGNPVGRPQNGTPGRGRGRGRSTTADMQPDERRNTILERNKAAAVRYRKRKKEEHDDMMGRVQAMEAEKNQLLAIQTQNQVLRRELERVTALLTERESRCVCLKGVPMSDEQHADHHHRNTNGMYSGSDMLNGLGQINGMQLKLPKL

Sequence | binding signal (PBM E-score (-0.5 to 0.5))
ACGTCACC (double strand) [8-mer ACGTCACC] | 0.496
ACGTCACT (double strand) [8-mer ACGTCACT] | 0.496
ATACGTCA (double strand) [8-mer ATACGTCA] | 0.494
CACGTCAC (double strand) [8-mer CACGTCAC] | 0.496

The sequences below were run against T5, bed-3 (F25H8.6) (Caenorhabditis elegans) (UniProt Q19787).
T5 sequence: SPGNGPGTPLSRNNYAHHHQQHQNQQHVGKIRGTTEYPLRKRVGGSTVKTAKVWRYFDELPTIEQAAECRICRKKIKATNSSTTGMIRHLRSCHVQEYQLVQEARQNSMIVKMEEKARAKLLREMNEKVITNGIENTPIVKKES

Sequence | binding signal (PBM E-score (-0.5 to 0.5))
TCCCGGGA (double strand) [8-mer TCCCGGGA] | 0.491
GATCCCGA (double strand) [8-mer GATCCCGA] | 0.49
AGTCTCGA (double strand) [8-mer AGTCTCGA] | 0.494
CTCGAGAG (double strand) [8-mer CTCGAGAG] | 0.493
ACTCCCGA (double strand) [8-mer ACTCCCGA] | 0.49
CTCGAGAA (double strand) [8-mer CTCGAGAA] | 0.491
CCTCGAGA (double strand) [8-mer CCTCGAGA] | 0.492
TCCCGAGA (double strand) [8-mer TCCCGAGA] | 0.493
GGTCTCGA (double strand) [8-mer GGTCTCGA] | 0.491
GCTCTCGA (double strand) [8-mer GCTCTCGA] | 0.491
ATCTCGAG (double strand) [8-mer ATCTCGAG] | 0.497
TCTCGAGA (double strand) [8-mer TCTCGAGA] | 0.499
GATCTCGA (double strand) [8-mer GATCTCGA] | 0.493
CTCGAGAC (double strand) [8-mer CTCGAGAC] | 0.497
ACTCTCGA (double strand) [8-mer ACTCTCGA] | 0.49

The sequences below were run against T6, ztf-27 (T09F3.1) (Caenorhabditis elegans) (UniProt G5EDA0).
T6 sequence: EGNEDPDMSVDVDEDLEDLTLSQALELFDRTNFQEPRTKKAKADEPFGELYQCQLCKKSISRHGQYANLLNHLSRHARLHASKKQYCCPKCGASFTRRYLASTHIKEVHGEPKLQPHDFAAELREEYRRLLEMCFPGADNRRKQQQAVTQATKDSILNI

Sequence | binding signal (PBM E-score (-0.5 to 0.5))
ATGGTGCA (double strand) [8-mer ATGGTGCA] | 0.487
TGGTGCAA (double strand) [8-mer TGGTGCAA] | 0.483
TGCACCAA (double strand) [8-mer TGCACCAA] | 0.488
ACACCAAT (double strand) [8-mer ACACCAAT] | 0.478
TGCGCCAA (double strand) [8-mer TGCGCCAA] | 0.478
ATGGTGTG (double strand) [8-mer ATGGTGTG] | 0.477
GTGCACCA (double strand) [8-mer GTGCACCA] | 0.484
TACACCAA (double strand) [8-mer TACACCAA] | 0.483
TACGCCAA (double strand) [8-mer TACGCCAA] | 0.48
TACACCCA (double strand) [8-mer TACACCCA] | 0.477
TGGTGTAA (double strand) [8-mer TGGTGTAA] | 0.48
ATGGTGTA (double strand) [8-mer ATGGTGTA] | 0.485
AATGGTGT (double strand) [8-mer AATGGTGT] | 0.477
ACACCATA (double strand) [8-mer ACACCATA] | 0.479

— article PMC4434323
